Reference: publication PMC11601597 (bioRxiv, 2024)
Where a chain is given by its changes, count along the chain named. In names and notes the source's numbering stands.

How the values were obtained:
[1] = target: K. pneumoniae OqxB (K. pneumoniae); assay: crystal structure
[2] = target: K. pneumoniae OqxB (K. pneumoniae); assay: cryo-EM structure
cryo-EM structure = target: the molecule itself; assay: cryo-EM structure
crystal structure = target: the molecule itself; assay: crystal structure

K. pneumoniae OqxB (natural protein)
stoichiometry N [1]: 3 | stoichiometry N [2]: 3

B1: E. coli AcrB V612F (natural protein)
chain: MPNFFIDRPIFAWVIAIIIMLAGGLAILKLPVAQYPTIAPPAVTISASYPGADAKTVQDTVTQVIEQNMNGIDNLMYMSSNSDSTGTVQITLTFESGTDADIAQVQVQNKLQLAMPLLPQEVQQQGVSVEKSSSSFLMVVGVINTDGTMTQEDISDYVAANMKDAISRTSGVGDVQLFGSQYAMRIWMNPNELNKFQLTPVDVITAIKAQNAQVAAGQLGGTPPVKGQQLNASIIAQTRLTSTEEFGKILLKVNQDGSRVLLRDVAKIELGGENYDIIAEFNGQPASGLGIKLATGANALDTAAAIRAELAKMEPFFPSGLKIVYPYDTTPFVKISIHEVVKTLVEAIILVFLVMYLFLQNFRATLIPTIAVPVVLLGTFAVLAAFGFSINTLTMFGMVLAIGLLVDDAIVVVENVERVMAEEGLPPKEATRKSMGQIQGALVGIAMVLSAVFVPMAFFGGSTGAIYRQFSITIVSAMALSVLVALILTPALCATMLKPIAKGDHGEGKKGFFGWFNRMFEKSTHHYTDSVGGILRSTGRYLVLYLIIVVGMAYLFVRLPSSFLPDEDQGVFMTMVQLPAGATQERTQKVLNEVTHYYLTKEKNNVESVFAFNGFGFAGRGQNTGIAFVSLKDWADRPGEENKVEAITMRATRAFSQIKDAMVFAFNLPAIVELGTATGFDFELIDQAGLGHEKLTQARNQLLAEAAKHPDMLTSVRPNGLEDTPQFKIDIDQEKAQALGVSINDINTTLGAAWGGSYVNDFIDRGRVKKVYVMSEAKYRMLPDDIGDWYVRAADGQMVPFSAFSSSRWEYGSPRLERYNGLPSMEILGQAAPGKSTGEAMELMEQLASKLPTGVGYDWTGMSYQERLSGNQAPSLYAISLIVVFLCLAALYESWSIPFSVMLVVPLGVIGALLAATFRGLTNDVYFQVGLLTTIGLSAKNAILIVEFAKDLMDKEGKGLIEATLDAVRMRLRPILMTSLAFILGVMPLVISTGAGSGAQNAVGTGVMGGMVTATVLAIFFVPVFFVVVRRRFSRKNEDIEHSHTVDHH
stoichiometry N (cryo-EM structure): 3

B2: E. coli AcrB V612N (natural protein)
chain: B1 chain with F612N
stoichiometry N (crystal structure): 3

B3: E. coli AcrB V612W (natural protein)
chain: B1 chain with F612W
stoichiometry N (cryo-EM structure): 3
